Assay results: article PMC10208982, “Structural basis of catalytic activation in human splicing” (Nature, 2023)

Experiments:
[1] = molecular target: T1, PRP2 (DHX16) 137-1022;PPIL4 (Homo sapiens;Homo sapiens, UniProt O60231;Q8WUA2 137-1022;1-492, |); experiment: EMSA; purified co-expressed complex; 2 mM Mg2+; EMSA: 50 nM RNA, 0.1-8 uM protein, 20 mM HEPES-KOH pH 7.5, 50 mM KCl, 2 mM MgCl2, 0.1 mg/ml BSA, 5% glycerol, 30 min room temperature; 5% native gel in Tris-glycine; conditions: protein: recombinant;recombinant; tags: N-terminal Twin-StrepII;untagged (Twin-StrepII removed by HRV-3C); copies: 1;1; label: Cy5 at 3' end of S3; 18 bp duplex, 3' overhang 30 nt on S4
T1 sequence 1: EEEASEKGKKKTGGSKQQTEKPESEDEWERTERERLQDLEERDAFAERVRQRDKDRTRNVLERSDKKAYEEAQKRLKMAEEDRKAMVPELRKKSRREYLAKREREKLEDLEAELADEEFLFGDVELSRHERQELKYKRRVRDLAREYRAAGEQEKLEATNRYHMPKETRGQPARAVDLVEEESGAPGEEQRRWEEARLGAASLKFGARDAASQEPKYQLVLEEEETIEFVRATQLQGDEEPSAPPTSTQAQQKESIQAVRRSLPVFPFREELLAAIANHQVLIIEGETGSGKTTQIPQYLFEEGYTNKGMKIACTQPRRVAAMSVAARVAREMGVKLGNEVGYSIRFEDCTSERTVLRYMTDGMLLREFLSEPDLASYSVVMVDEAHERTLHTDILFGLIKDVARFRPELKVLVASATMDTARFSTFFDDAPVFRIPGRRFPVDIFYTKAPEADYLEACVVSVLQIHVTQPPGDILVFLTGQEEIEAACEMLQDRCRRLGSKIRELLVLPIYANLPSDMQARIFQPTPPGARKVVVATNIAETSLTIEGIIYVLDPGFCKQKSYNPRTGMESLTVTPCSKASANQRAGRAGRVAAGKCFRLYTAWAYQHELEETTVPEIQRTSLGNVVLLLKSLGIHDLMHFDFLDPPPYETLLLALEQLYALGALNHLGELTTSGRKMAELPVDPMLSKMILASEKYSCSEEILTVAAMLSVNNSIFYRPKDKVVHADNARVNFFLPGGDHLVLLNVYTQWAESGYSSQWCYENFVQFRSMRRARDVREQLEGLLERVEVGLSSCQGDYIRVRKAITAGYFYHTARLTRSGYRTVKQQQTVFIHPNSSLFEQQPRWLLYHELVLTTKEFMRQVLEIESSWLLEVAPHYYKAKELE
T1 sequence 2: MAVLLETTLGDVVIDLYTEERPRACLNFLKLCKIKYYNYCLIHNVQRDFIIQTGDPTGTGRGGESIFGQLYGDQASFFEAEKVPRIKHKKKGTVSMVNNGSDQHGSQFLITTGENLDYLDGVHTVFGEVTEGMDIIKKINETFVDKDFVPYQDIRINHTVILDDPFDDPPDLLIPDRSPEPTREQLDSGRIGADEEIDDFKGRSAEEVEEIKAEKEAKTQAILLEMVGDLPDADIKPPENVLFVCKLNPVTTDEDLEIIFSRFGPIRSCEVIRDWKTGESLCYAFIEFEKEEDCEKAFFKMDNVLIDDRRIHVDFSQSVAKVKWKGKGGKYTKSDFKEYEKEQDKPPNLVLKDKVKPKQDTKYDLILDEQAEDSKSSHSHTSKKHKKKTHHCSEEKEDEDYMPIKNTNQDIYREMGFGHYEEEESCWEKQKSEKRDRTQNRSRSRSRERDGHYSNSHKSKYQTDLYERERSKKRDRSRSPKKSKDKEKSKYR

[2] = molecular target: T2, PRP2 (DHX16) 137-1022 (Homo sapiens, UniProt O60231 137-1022); experiment: EMSA; 2 mM Mg2+; EMSA: 50 nM RNA, 0.1-8 uM protein, 20 mM HEPES-KOH pH 7.5, 50 mM KCl, 2 mM MgCl2, 0.1 mg/ml BSA, 5% glycerol, 30 min room temperature; 5% native gel in Tris-glycine; conditions: protein: recombinant; tags: N-terminal Twin-StrepII; label: Cy5 at 3' end of S3; 18 bp duplex, 3' overhang 30 nt on S4
T2 sequence: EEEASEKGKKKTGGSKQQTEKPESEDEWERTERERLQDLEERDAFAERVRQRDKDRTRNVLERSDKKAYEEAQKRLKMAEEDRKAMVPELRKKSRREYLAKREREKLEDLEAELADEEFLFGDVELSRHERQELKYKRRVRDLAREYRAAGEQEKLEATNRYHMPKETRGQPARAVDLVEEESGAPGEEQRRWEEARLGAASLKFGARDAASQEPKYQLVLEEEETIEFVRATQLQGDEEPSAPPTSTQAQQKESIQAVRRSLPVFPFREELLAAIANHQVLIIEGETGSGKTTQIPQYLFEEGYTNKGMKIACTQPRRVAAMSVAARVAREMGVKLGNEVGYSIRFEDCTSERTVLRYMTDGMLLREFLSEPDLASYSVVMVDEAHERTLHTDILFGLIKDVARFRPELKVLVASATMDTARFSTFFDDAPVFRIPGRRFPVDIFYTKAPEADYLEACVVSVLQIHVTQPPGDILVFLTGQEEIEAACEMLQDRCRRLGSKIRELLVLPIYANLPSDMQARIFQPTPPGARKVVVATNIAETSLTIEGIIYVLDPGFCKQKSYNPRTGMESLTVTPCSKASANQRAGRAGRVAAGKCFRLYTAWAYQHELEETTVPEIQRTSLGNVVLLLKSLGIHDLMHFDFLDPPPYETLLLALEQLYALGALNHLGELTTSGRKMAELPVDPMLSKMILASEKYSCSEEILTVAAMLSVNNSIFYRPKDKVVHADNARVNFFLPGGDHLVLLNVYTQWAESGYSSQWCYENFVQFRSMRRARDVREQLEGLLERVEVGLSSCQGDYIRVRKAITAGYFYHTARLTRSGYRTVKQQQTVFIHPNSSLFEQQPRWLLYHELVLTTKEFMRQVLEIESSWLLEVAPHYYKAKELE

[3] = molecular target: T3, GPKOW (Homo sapiens, UniProt Q92917 1-476); experiment: as above; conditions: protein: recombinant; tags: N-terminal Twin-StrepII; label: Cy5 at 3' end of S3; 18 bp duplex, 3' overhang 30 nt on S4
T3 sequence: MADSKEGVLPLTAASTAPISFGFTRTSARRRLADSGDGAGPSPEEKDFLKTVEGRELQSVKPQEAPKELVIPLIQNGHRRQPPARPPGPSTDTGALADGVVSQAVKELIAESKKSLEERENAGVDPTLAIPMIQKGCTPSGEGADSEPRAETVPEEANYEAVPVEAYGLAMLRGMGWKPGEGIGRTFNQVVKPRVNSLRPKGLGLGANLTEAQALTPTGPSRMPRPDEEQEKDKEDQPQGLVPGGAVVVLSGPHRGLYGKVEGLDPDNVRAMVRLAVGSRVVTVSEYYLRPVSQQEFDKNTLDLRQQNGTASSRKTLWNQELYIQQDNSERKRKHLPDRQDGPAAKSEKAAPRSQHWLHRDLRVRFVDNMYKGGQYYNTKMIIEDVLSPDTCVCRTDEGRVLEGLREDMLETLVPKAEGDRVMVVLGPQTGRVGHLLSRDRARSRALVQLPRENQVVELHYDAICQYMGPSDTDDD

[4] = molecular target: T4, PPIL4 (Homo sapiens, UniProt Q8WUA2 1-492); experiment: EMSA; no PRP2; 2 mM Mg2+; EMSA: 50 nM RNA, 0.1-8 uM protein, 20 mM HEPES-KOH pH 7.5, 50 mM KCl, 2 mM MgCl2, 0.1 mg/ml BSA, 5% glycerol, 30 min room temperature; 5% native gel in Tris-glycine; conditions: protein: recombinant; tags: untagged (Twin-StrepII removed by HRV-3C); label: Cy5 at 3' end of S3; 18 bp duplex, 3' overhang 30 nt on S4
T4 sequence: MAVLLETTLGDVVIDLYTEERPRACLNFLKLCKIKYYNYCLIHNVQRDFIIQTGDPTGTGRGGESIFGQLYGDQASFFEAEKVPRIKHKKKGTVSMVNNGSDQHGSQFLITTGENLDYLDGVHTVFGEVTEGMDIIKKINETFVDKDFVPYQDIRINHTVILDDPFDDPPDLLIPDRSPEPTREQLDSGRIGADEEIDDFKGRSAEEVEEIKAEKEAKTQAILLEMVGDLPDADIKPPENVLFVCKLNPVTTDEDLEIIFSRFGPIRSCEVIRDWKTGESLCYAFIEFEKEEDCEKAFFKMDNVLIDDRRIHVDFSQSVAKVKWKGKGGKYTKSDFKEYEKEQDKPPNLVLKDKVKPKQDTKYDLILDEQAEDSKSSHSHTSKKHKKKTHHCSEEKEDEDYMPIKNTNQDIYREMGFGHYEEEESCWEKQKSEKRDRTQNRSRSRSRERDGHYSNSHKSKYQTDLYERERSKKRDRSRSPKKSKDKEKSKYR

[5] = molecular target: T5, PRP2 (DHX16) 137-1022;GPKOW (Homo sapiens;Homo sapiens, UniProt O60231;Q92917 137-1022;1-476, |); experiment: EMSA; complex assembled in vitro; 2 mM Mg2+; EMSA: 50 nM RNA, 0.1-8 uM protein, 20 mM HEPES-KOH pH 7.5, 50 mM KCl, 2 mM MgCl2, 0.1 mg/ml BSA, 5% glycerol, 30 min room temperature; 5% native gel in Tris-glycine; conditions: protein: recombinant;recombinant; tags: N-terminal Twin-StrepII;N-terminal Twin-StrepII; copies: 1;1; label: Cy5 at 3' end of S3; 18 bp duplex, 3' overhang 30 nt on S4
T5 sequence 1: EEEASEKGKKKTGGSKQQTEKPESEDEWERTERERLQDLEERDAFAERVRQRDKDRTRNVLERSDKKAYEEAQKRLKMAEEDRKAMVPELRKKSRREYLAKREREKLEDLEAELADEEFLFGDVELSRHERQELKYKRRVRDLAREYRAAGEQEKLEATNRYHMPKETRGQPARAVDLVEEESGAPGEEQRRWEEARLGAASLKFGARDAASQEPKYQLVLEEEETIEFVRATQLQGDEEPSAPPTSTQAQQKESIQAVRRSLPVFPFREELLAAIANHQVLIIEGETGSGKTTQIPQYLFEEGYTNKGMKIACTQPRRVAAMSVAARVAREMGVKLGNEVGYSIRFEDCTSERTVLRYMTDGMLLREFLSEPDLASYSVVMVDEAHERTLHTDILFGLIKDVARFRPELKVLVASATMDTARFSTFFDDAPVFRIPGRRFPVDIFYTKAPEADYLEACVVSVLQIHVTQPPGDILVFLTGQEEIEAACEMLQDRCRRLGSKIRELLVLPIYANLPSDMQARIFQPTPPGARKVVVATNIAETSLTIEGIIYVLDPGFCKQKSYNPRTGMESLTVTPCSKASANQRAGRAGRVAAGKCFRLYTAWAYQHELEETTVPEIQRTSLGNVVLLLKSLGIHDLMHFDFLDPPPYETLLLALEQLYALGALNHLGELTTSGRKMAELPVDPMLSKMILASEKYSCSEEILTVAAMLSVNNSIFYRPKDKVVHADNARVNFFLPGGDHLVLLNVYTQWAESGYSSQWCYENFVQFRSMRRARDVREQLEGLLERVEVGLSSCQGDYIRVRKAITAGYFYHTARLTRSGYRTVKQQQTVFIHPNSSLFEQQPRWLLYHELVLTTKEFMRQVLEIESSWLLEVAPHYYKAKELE
T5 sequence 2: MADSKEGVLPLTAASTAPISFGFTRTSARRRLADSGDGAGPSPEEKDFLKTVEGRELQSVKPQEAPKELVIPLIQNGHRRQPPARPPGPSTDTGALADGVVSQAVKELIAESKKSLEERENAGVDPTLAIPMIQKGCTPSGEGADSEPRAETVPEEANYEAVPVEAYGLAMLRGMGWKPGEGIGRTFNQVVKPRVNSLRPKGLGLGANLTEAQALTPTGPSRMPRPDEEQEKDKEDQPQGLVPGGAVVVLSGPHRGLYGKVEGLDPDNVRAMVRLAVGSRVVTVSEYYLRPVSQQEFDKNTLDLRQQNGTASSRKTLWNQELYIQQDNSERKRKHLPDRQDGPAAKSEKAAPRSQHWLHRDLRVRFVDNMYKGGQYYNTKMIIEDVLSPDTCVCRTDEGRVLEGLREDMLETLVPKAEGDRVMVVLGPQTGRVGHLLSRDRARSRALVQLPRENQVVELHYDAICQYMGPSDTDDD

Measured: binding result

B1: Cy5 RNA duplex with 30-nt 3' overhang (dsRNA)
RNA 1: GCGCCUACGGAGCUGGUGGCGUAGGCGCAAAAAAAAAAAAAAAAAAAA
RNA 2: CACCAGCUCCGUAGGCGC
binds: [1] | [2] | [3] | [4] | [5]
